Literature values in US9486409B2, “Peptide nanoparticles and uses therefor” (Anterios, Inc., priority 2006, dated 2016).

Conditions: unmodified peptide, prior studies (Katayama et al.)

Substance: KTTKS (peptide that may promote extra-cellular matrix production) [unmodified pentapeptide known to promote extra-cellular matrix production]
- penetration of intact skin: cannot penetrate the intact skin without chemical modification
